One assay addresses T1, AP-TALL-1 (human, UniProt Q9Y275 136-285).
T1 construct: Used as conditioned medium of transfected 293 cells; AP is at the N-terminus of TALL-1; Flag precedes AP (as described for AP-APRIL); not shown: human placental alkaline phosphatase (AP), amplified from pAPtag-5
As to the kind of experiment: AP-TALL-1 binding to transfected cells.

The target in assay [1] is T2, APRIL (full length cDNA clone without Flag tag) expressed on transfected COS 7 cells (human, UniProt O75888 105-250).
T2 construct: also called APRIL-transfected COS 7 cells
T2 sequence: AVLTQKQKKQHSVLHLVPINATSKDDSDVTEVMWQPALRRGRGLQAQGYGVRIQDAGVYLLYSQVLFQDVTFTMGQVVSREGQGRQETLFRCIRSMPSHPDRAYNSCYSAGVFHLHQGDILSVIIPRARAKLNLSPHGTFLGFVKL
Kind of assay: receptor-Fc staining of transfected COS 7 cells, biotinylated anti-human antibody and Cy3-streptavidin. As for the experimental part:
Transfected COS 7 cells were subsequently incubated with TACI.ECD.hFC immunoadhesin, hBr3-hFc, or mBR3-hFc (prepared as described above). Cells were incubated with the TACI ECD-IgG (or a TNFR1-IgG construct prepared as described in Ashkenazi et al., Proc. Natl. Acad. Sci., 88:10535-10539 (1991)) at 1 μg/ml for 1 hour in PBS. Cells were subsequently washed three times with PBS and fixed with 4% paraformaldehyde in PBS. Cell staining was visualized by incubation with biotinylated goat anti-human antibody (Jackson Labs, at 1:200 dilution) followed by Cy3-streptavidin (Jackson Labs, at 1:200 dilution). Murine BR3-Fc, like hBR3-hFc, also only bound TALL-1-transfected but not APRIL-transfected COS 7 cells (data not shown). […] In contrast, TACI-hFc fusion protein bound cells transfected with either TALL-1 or APRIL (FIG. 10).

The target of assay [2] is T3, TACIs expressed on transfected COS 7 cells (human, UniProt O14836 1-292).
T3 sequence: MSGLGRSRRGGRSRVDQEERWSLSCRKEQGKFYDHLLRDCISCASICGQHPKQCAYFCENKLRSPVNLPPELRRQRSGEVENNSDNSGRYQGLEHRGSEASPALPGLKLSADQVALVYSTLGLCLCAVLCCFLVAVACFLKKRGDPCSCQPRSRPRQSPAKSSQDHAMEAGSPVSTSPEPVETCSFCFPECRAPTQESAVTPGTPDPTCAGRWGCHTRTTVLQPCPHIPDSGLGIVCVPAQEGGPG
As to the kind of experiment: AP-APRIL staining of transfected cells, in situ AP activity.

In assay [3] the target is T4, human TACI (265 amino acid form) expressed on transfected COS 7 cells (human, UniProt O14836 1-258).
T4 construct: also called hTACI (265)
T4 sequence: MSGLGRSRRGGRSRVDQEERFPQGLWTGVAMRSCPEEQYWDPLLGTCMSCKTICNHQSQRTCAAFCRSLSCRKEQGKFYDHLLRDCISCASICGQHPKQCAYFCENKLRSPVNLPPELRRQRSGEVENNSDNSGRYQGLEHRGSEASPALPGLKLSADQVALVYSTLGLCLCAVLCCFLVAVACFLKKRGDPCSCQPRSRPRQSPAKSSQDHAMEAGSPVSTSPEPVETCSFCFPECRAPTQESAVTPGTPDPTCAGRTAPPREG
As to the kind of experiment: AP-ligand conditioned medium on transfected COS 7 cells, in situ AP staining.

The target in assay [4] is T5, murine BR3 expressed on transfected COS 7 cells (murine, UniProt Q9D8D0 1-175).
T5 construct: also called mBR3
T5 sequence: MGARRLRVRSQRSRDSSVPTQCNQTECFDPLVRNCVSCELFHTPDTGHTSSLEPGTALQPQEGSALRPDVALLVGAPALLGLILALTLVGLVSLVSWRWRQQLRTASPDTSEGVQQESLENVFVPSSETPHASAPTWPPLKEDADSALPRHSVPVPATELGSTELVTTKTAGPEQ
The description is as above.

The target of assay [5] is T6, human BR3 expressed on transfected COS 7 cells (human, UniProt Q96RJ3 1-184).
T6 construct: also called hBR3
T6 sequence: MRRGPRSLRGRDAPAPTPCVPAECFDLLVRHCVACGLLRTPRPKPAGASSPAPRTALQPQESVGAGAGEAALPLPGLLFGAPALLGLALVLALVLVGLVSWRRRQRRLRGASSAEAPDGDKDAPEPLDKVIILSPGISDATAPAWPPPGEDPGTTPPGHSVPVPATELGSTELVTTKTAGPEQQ
As to the kind of experiment: figure legend: AP-ligand conditioned medium on transfected COS 7 cells, in situ AP staining. The method, then:
(a) COS 7 transfected with hBR3 (1,2) or TACI (3,4) were incubated with conditioned medium containing AP-TALL-1 (1,3) or AP-April (2,4). Cells were washed, fixed, and stained for the AP activity in situ. (b) COS7 cells transfected with TALL-1 (1,2) or April (3,4) were incubated with hBR3-hFc (1,3) or TACI-hFc (2,4). Cells were washed, fixed, and bound receptor-hFc protein was detected using a biotinylated goat anti-human antibody followed by Cy3-streptavidin. (c) BR3-hFc (1,2) or TACI-hFc (3,4) was incubated with Flag-TALL-1 (1,3) or Flag-April (2,4). The receptor-Fc fusion proteins precipitated with protein-A-agarose were subjected to immunoblotting with anti-Flag antibody. Equivalent amounts of ligand (middle panel) or receptor-hFc (bottom) were used in the binding experiment. (d) 293E cells (Invitrogen) were transfected with 0.25 ug of a NF-kB luciferase reporter gene construct, 25 ng pRL-TK, and indicated amounts of expression constructs encoding hBR3, mBR3, TACI and BCMA. NF-kB activation was determined 20-24 hours later using the Dual-Luciferase reporter assay kit (Promega).

T1 sequence (Q9Y275 136-285): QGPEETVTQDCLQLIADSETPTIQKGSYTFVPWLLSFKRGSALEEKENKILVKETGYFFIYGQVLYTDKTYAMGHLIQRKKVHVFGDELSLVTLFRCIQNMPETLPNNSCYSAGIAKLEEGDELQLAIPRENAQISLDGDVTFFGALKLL

B1: BCMA expressed on transfected cells (receptor)
chain: MLQMAGQCSQNEYFDSLLHACIPCQLRCSSNTPPLTCQRYCNASVTNSVKGTNAILWTCLGLSLIISLAVFVLMFLLRKISSEPLKDEFKNTGSGLLGMANIDLEKSRTGDEIILPRGLEYTVEECTCEDCIKSKPKVDSDHCFPLPAMEEGATILVTTKTNDYCKSLPAALSATEIEKSISAR
notes: The expression construct is only called 'BCMA'; also called BCMA-transfected cells
B1: the binding result in the assay with AP-TALL-1 is “binds”.

B2: Murine BR3-Fc (Fc fusion)
chain: MGARRLRVRSQRSRDSSVPTQCNQTECFDPLVRNCVSCELFHTPDTGHTSSLEPGTALQPQEGSALRPDVA
notes: Only 'prepared as described above' is said; also called mBR3-hFc; not shown: human IgG1 Fc region
B2: the binding result in assay [1] is recorded as “no binding”.

B3: AP-APRIL (ligand)
chain: T2 sequence
notes: APRIL fused C-terminally to AP, AP fused C-terminally to Flag; not shown: human placental alkaline phosphatase (AP)
Take B3: the binding result in assay [2] is recorded as “binds”; in assay [3] it was “binds”; in assay [4], “no binding”; in assay [5], “no binding”.

Source of the values: patent US20050070689A1 (Genentech, published 2005).
